Biological target: GST-Foxp1 fusion protein (mouse) (mouse) (UniProt P58462)
Assay: pull-down; GST or GST-Foxp1 from bacterial extracts immobilised on GSH-agarose beads and washed; 1 ul of 35S-labelled in vitro translated Ikaros in 200 ul 0.02 M HEPES-KOH pH 7.9, 0.1% NP-40, 0.15 M NaCl, 1 mM DTT, 1 h at 4°C; quantified relative to input and to wild type (100%)

Sequence of UniProt P58462 (P58462 whole entry, the tested form may be a part): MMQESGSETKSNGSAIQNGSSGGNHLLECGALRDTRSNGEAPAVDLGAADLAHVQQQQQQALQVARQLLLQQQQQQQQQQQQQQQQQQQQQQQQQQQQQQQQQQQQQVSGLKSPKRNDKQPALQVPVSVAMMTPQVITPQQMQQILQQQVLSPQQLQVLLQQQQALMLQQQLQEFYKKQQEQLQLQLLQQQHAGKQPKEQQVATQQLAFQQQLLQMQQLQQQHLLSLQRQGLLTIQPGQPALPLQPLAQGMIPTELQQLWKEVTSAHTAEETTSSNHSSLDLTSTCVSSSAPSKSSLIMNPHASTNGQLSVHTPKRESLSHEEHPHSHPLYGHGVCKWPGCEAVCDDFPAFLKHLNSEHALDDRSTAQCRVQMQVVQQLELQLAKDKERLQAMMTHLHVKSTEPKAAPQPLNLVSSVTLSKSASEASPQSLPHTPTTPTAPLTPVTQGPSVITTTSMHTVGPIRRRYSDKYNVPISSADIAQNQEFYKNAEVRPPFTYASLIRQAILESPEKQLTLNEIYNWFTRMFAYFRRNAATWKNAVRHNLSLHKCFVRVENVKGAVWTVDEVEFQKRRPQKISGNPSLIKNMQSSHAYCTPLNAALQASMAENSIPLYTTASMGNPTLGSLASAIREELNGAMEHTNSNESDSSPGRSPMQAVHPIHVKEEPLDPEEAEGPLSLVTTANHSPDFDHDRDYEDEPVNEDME

reduction relative to wild-type binding [%]	Substance
40	IKΔ235-362 (mouse Ikaros deletion; in vitro translated) (domain or fragment)
50	IKΔC458 (mouse Ikaros deletion of the two C-terminal zinc fingers; in vitro translated) (domain or fragment)

— paper PMC5323203
